Publication PMC7563236

Biological target: His6-Ku70-tRFP (human) (UniProt P12956)
Test: SDS-PAGE without heat denaturation, fluorescence in the gel; samples not denatured at 94 °C; bands of His6-Ku70-tRFP seen by tRFP fluorescence

“His6-Ku70-tRFP (from UniProt P12956 1-609) (natural protein)” was tested. Which stoichiometry N did it give?
The stoichiometry N was 2.
